We go through 94 variants from the supplement of paper PMC10567573.

Sequences and labels used below:
B1: GMCL1 (parent)
chain: RPDTGDDAAGHGFCYCAGSHKRKR
B2: CPXM2 (parent)
chain: TASTKNCMVGYDMGATRCDFTLSK
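Note: lentivirally expressed fusions sorted by FACS into six bins by GFP to DsRed ratio, PSI derived from sequencing read proportions per bin multiplied by bin number.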

Variants of B1 are the subject of the first series. Kind of series: protein stability index of a GFP-peptide fusion (GPS, HEK-293T) (PSI 1-6); higher = more stable. Particulars: c terminus: a fixed tail appended.
On to RTDTGDDAAGHGFCYCAGSHKRKR, for which the protein stability index came to 2.3. Take RCDTGDDAAGHGFCYCAGSHKRKR: the protein stability index was found to be 3.23. For the variant RLDTGDDAAGHGFCYCAGSHKRKR, the protein stability index was found to be 2.77.

Regarding RNDTGDDAAGHGFCYCAGSHKRKR, the protein stability index is 3.27. On the same count and under the same terms, in the case of RFDTGDDAAGHGFCYCAGSHKRKR it was 2.91; in that of RRDTGDDAAGHGFCYCAGSHKRKR, 2.85; in that of RWDTGDDAAGHGFCYCAGSHKRKR, 3.4. Take RYDTGDDAAGHGFCYCAGSHKRKR: the protein stability index amounted to 3.41. Same read-out and setting: in the case of REDTGDDAAGHGFCYCAGSHKRKR it was 3.14.

Turning to RGDTGDDAAGHGFCYCAGSHKRKR, the protein stability index came out at 3.01.

Consider RADTGDDAAGHGFCYCAGSHKRKR, for which the protein stability index is 3.02. Same read-out and setting: in the case of RSDTGDDAAGHGFCYCAGSHKRKR it was 2.95; in that of RQDTGDDAAGHGFCYCAGSHKRKR, 2.91. The same measure, in the same setting: in the case of RMDTGDDAAGHGFCYCAGSHKRKR it was 3.05; in that of RHDTGDDAAGHGFCYCAGSHKRKR, 2.96; in that of RKDTGDDAAGHGFCYCAGSHKRKR, 3.35. The same measure, in the same setting: in the case of RDDTGDDAAGHGFCYCAGSHKRKR it was 3.46; in that of RVDTGDDAAGHGFCYCAGSHKRKR, 2.89; in that of RIDTGDDAAGHGFCYCAGSHKRKR, 3.08. For RPCTGDDAAGHGFCYCAGSHKRKR, the protein stability index amounted to 2.97. With RPITGDDAAGHGFCYCAGSHKRKR, the protein stability index worked out at 3.29.

For the variant RPMTGDDAAGHGFCYCAGSHKRKR, the protein stability index came to 2.3.

Take RPGTGDDAAGHGFCYCAGSHKRKR: the protein stability index came out at 2.19.

With RPETGDDAAGHGFCYCAGSHKRKR, the protein stability index came to 2.41. On the same count and under the same terms, in the case of RPPTGDDAAGHGFCYCAGSHKRKR it was 3.64; in that of RPHTGDDAAGHGFCYCAGSHKRKR, 3.4. The same measure, in the same setting: in the case of RPFTGDDAAGHGFCYCAGSHKRKR it was 2.76. For the variant RPATGDDAAGHGFCYCAGSHKRKR, the protein stability index is 2.62. Consider RPLTGDDAAGHGFCYCAGSHKRKR, for which the protein stability index worked out at 3.14. On the same count and under the same terms, in the case of RPNTGDDAAGHGFCYCAGSHKRKR it was 3.31; in that of RPKTGDDAAGHGFCYCAGSHKRKR, 3.62; in that of APDTGDDAAGHGFCYCAGSHKRKR, 2.89. Turning to WPDTGDDAAGHGFCYCAGSHKRKR, the protein stability index came to 3.2.

As to LPDTGDDAAGHGFCYCAGSHKRKR, the protein stability index worked out at 3.2.

Regarding QPDTGDDAAGHGFCYCAGSHKRKR, the protein stability index was 2.98.

Regarding GPDTGDDAAGHGFCYCAGSHKRKR, the protein stability index is 3.97.

In the case of TPDTGDDAAGHGFCYCAGSHKRKR, the protein stability index came out at 2.97. As for CPDTGDDAAGHGFCYCAGSHKRKR, the protein stability index was 2.99.

Consider EPDTGDDAAGHGFCYCAGSHKRKR, for which the protein stability index was determined as 2.84. On the same count and under the same terms, in the case of KPDTGDDAAGHGFCYCAGSHKRKR it was 2.99; in that of HPDTGDDAAGHGFCYCAGSHKRKR, 3.08; in that of SPDTGDDAAGHGFCYCAGSHKRKR, 2.96.

Consider PPDTGDDAAGHGFCYCAGSHKRKR, for which the protein stability index was found to be 2.71. Still for that read-out and setting: in the case of NPDTGDDAAGHGFCYCAGSHKRKR it was 2.83. On to IPDTGDDAAGHGFCYCAGSHKRKR, for which the protein stability index turned out to be 2.34. The same measure, in the same setting: in the case of DPDTGDDAAGHGFCYCAGSHKRKR it was 2.92. Same read-out and setting: in the case of MPDTGDDAAGHGFCYCAGSHKRKR it was 3.16; in that of VPDTGDDAAGHGFCYCAGSHKRKR, 2.5. As to FPDTGDDAAGHGFCYCAGSHKRKR, the protein stability index came out at 1.76. Same read-out and setting: in the case of YPDTGDDAAGHGFCYCAGSHKRKR it was 2.

In another series the parent is B2. The description is as above. The note with it: c terminus: a fixed tail appended.
Turning to TASTKHCMVGYDMGATRCDFTLSK, the protein stability index was 2.04. The same measure, in the same setting: in the case of TASTKPCMVGYDMGATRCDFTLSK it was 3.12. Take TASTKWCMVGYDMGATRCDFTLSK: the protein stability index turned out to be 2.34. Same read-out and setting: in the case of TASTKRCMVGYDMGATRCDFTLSK it was 2.04; in that of TASTKKCMVGYDMGATRCDFTLSK, 1.87. Same read-out and setting: in the case of TASTKTCMVGYDMGATRCDFTLSK it was 3.1; in that of TASTKDCMVGYDMGATRCDFTLSK, 3.5; in that of TASTKNCMVGYDQGATRCDFTLSK, 3.19. Same read-out and setting: in the case of TASTKNCMVGYDVGATRCDFTLSK it was 3.02. For TASTKNCMVGYDEGATRCDFTLSK, the protein stability index was determined as 3.92. The same measure, in the same setting: in the case of TASTKNCMPGYDMGATRCDFTLSK it was 2.89; in that of TASTKNCMEGYDMGATRCDFTLSK, 3.33; in that of TASTKNCMLGYDMGATRCDFTLSK, 2.05. The same measure, in the same setting: in the case of TASTKNCMIGYDMGATRCDFTLSK it was 2.49; in that of TASTKNCMGGYDMGATRCDFTLSK, 3.52; in that of TASTKNCMVGYDMGATECDFTLSK, 3.79. As for TASTKNCMVGYDMGATVCDFTLSK, the protein stability index amounted to 3.7. Turning to TASTKNCMVGYDMGATMCDFTLSK, the protein stability index came out at 3.07. The same measure, in the same setting: in the case of TASTKNCMVGYDMGATWCDFTLSK it was 2.13. As for TASTKNCMVGYDMGATPCDFTLSK, the protein stability index was 3.57. On to TASTKNCMVGYDMGATQCDFTLSK, for which the protein stability index is 3.67.

With TASTKNCMVGYDMGATCCDFTLSK, the protein stability index worked out at 3.49.

In the case of TASTKNYMVGYDMGATRCDFTLSK, the protein stability index was determined as 2.71. The same measure, in the same setting: in the case of TASTKNTMVGYDMGATRCDFTLSK it was 3.24; in that of TASTKNFMVGYDMGATRCDFTLSK, 3.21; in that of TASTKNKMVGYDMGATRCDFTLSK, 3.18. Consider TASTKNWMVGYDMGATRCDFTLSK, for which the protein stability index was found to be 2.99.

For the variant TASTKNIMVGYDMGATRCDFTLSK, the protein stability index was 3.11. Regarding TASTKNCMVGYDMGATRCDHTLSK, the protein stability index worked out at 3.5. With TASTKNCMVGYDMGATRCDSTLSK, the protein stability index worked out at 2.99.

Consider TASTKNCMVGYDMGATRCDVTLSK, for which the protein stability index stood at 2.81. Consider TASTKNCMVGYDMGATRCDWTLSK, for which the protein stability index stood at 2.28. On the same count and under the same terms, in the case of TASTKNCMVGYDMLATRCDFTLSK it was 2.31. In the case of TASTKNCMVGYDMEATRCDFTLSK, the protein stability index came out at 2.97. In the case of TASTKNCMVGYDMSATRCDFTLSK, the protein stability index amounted to 2.5. Regarding TASTKNCMVGYDMVATRCDFTLSK, the protein stability index turned out to be 1.75. On the same count and under the same terms, in the case of TASTKNCMVGYDMPATRCDFTLSK it was 2.84; in that of TASTKNCMVGYDMRATRCDFTLSK, 2.88; in that of TASTKNCMVGYDMFATRCDFTLSK, 1.93. Same read-out and setting: in the case of TASTKNCMVGYDMNATRCDFTLSK it was 3.17; in that of TASTKNCMVGYDMGATRPDFTLSK, 3.2; in that of TASTKNCMVGRDMGATRCDFTLSK, 2.59. For TASTKNCMVGMDMGATRCDFTLSK, the protein stability index was 2.49.

Take TASTKNCMVGWDMGATRCDFTLSK: the protein stability index stood at 2.23.
